What was measured:
Conditions in all cases: both partners purified
MBP-KPNA7(P339A) = target: T1, MBP-KPNA7(P339A) (human, UniProt A9QM74 1-516, P339A); experiment: pull-down; MBP fusion proteins on amylose resin (1 μg/μl), GST-GFP-NLS constructs in solution (250 nM or indicated concentrations) with Imp-β (250 nM); 2 hrs at 4 °C, 20 mM Tris pH 8, 200 mM NaCl, 1 mM EDTA, 1 mM DTT, 0.05% Triton X-100; western blot
T1 construct: Substitution found in epilepsy patients (occurs in nature); also called KPNA7 mutant P339A; P339A KPNA7; source: E. coli BL21, purified (amylose resin, eluted with maltose, dialyzed)
T1 sequence (A9QM74 whole entry P339A, the tested form may be a part): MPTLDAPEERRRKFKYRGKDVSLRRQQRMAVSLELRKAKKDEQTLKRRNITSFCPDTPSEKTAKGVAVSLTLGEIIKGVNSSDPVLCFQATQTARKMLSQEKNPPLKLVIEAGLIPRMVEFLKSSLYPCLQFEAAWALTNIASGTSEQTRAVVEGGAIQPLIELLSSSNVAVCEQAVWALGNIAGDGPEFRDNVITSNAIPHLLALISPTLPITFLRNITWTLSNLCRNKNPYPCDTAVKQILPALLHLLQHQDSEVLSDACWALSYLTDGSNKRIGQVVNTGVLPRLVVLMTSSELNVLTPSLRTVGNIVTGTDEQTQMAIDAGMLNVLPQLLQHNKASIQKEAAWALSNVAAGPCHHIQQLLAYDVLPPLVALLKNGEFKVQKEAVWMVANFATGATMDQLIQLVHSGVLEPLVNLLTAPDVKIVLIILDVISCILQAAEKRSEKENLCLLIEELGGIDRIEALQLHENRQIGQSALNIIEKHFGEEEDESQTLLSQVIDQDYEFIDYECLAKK

MBP-KPNA7(E344Q) [1] = target: T2, MBP-KPNA7(E344Q) (human, UniProt A9QM74 1-516, E344Q); experiment: as above
T2 construct: Substitution found in epilepsy patients (occurs in nature); also called KPNA7 mutant E344Q; E344Q KPNA7; source: E. coli BL21, purified (amylose resin, eluted with maltose, dialyzed)
T2 sequence (A9QM74 whole entry E344Q): as the sequence (A9QM74 whole entry P339A, the tested form may be a part) above, with A339P, E344Q counted along it

MBP-KPNA7 (wild type) = target: T3, MBP-KPNA7 (wild type) (human, UniProt A9QM74 1-516); experiment: pull-down; bead binding assay with a range of GST-GFP-hnRNP R-bNLS concentrations (10 nM to 2.7 μM) on KPNA7 proteins; binding curve, apparent KD
T3 construct: also called WT KPNA7; MBP-KPNA7 WT; source: E. coli BL21, purified (amylose resin, eluted with maltose, dialyzed)
T3 sequence (A9QM74 whole entry): as the sequence (A9QM74 whole entry P339A, the tested form may be a part) above, with A339P counted along it

MBP-KPNA7(E344Q) [2] = target: T2, MBP-KPNA7(E344Q); experiment: as above

B1: GST-GFP-hnRNP R bipartite NLS (domain or fragment, UniProt O43390 565-589, looked up)
chain: RGGNVGGKRKADGYNQPDSKRRQTN
notes: hnRNP R, bipartite NLS (bNLS, a.a. 565-589), cloned into pGEX-4T1-GFP; The limits are those that the text gives for the NLS; also called hnRNP R bNLS; hnRNP R-bNLS; source: E. coli BL21, purified (glutathione resin)
binding result (MBP-KPNA7(P339A)): binds
fold less binding than WT KPNA7 (MBP-KPNA7(E344Q) [1]): ~10 fold
Kd (MBP-KPNA7 (wild type)): ~123 nM
Kd (MBP-KPNA7(E344Q) [2]): ~223 nM

— PMC7076015, “An epilepsy-associated mutation in the nuclear import receptor KPNA7 reduces nuclear localization signal binding” (Scientific Reports, 2020)
